Data: article PMC7958410, “Hepatitis B virus X protein promotes vimentin expression via LIM and SH3 domain protein 1 to facilitate epithelial-mesenchymal transition and hepatocarcinogenesis” (Cell Communication and Signaling : CCS, 2021)

Target: T1, His-vimentin (UniProt P08670 1-466)
T1 construct: vimentin; also called vimentin with His Tag; source: E. coli DH5α, purified by His-beads
Experiment: pull-down; GST fusion bound to glutathione-Sepharose beads incubated with purified His-tagged protein at 4 °C; washed 3 times with binding buffer; western blot
Details: both partners purified

T1 sequence (P08670 whole entry): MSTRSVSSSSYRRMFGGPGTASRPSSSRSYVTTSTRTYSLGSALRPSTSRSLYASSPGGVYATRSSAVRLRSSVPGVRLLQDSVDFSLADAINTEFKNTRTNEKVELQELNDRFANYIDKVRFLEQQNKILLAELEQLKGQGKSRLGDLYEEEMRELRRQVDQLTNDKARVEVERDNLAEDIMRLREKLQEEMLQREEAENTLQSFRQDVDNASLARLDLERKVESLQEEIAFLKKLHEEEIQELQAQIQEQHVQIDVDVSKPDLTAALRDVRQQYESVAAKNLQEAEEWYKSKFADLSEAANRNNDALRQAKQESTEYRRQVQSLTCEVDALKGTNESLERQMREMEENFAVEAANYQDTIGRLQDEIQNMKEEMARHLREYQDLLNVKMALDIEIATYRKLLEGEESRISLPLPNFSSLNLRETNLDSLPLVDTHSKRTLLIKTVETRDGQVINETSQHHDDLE

B1: GST-LASP1 (natural protein, UniProt Q14847 1-261, looked up)
chain: MNPNCARCGKIVYPTEKVNCLDKFWHKACFHCETCKMTLNMKNYKGYEKKPYCNAHYPKQSFTMVADTPENLRLKQQSELQSQVRYKEEFEKNKGKGFSVVADTPELQRIKKTQDQISNIKYHEEFEKSRMGPSGGEGMEPERRDSQDGSSYRRPLEQQQPHHIPTSAPVYQQPQQQPVAQSYGGYKEPAAPVSIQRSAPGGGGKRYRAVYDYSAADEDEVSFQDGDTIVNVQQIDDGWMYGTVERTGDTGMLPANYVEAI
notes: LIM and SH3 domain protein 1 (LASP1); also called LASP1 with GST Tag
- binding result: binds
